Tests used:
CNTO95 [1] = experiment: flow cytometry: CNTO95 (10 ug/ml) staining of A375.S2 cells after preincubation with peptide at 100 ug/ml
CNTO95 [2] = experiment: flow cytometry: CNTO95 (10 ug/ml) staining of A375.S2 cells after preincubation with peptide at 200 ug/ml
CNTO95 [3] = experiment: isothermal titration calorimetry, peptide titrated into 3 µM CNTO95, 25° C. (commented: No binding)
CNTO95 [4] = experiment: isothermal titration calorimetry, peptide titrated into 3 µM CNTO95, 25° C.
CNTO95 [5] = experiment: competitive ELISA: peptide preincubated with CNTO95, CNTO95 binding to αVβ3-coated plate detected

Binder | Mean Channel Fluorescence (CNTO95 [1]) | Mean Channel Fluorescence (CNTO95 [2]) | ΔH (CNTO95 [3]) [kcal/mol] | Kd (CNTO95 [4]) [µM] | Molar ratio (Peptide/CNTO95) (CNTO95 [4]) | ΔH (CNTO95 [4]) [kcal/mol] | EC50 (CNTO95 [5]) [µM]
DFRSWWDLEE (synthetic peptide made from the consensus formula; C-terminal glutamates added for solubility) [CEN2553] | 12.9 | 9.41 | – | – | – | – | –
DYRTAADTTGLQ (synthetic peptide with the D564-Q575 segment of the mature alphaV chain; also called alphaV segment; native peptide) [CEN2322] | 90.5 | 92.4 | -0.325 | – | – | – | –
DFRSWWDLSGYR (synthetic linear peptide, phage-display consensus (mimotope); also called 12p1; 12pG1) [CEN2319] | 12.3 | 11.6 | – | 4.2 | 2.2 | -12 | 5.8

From patent US20050084491A1 (Janssen / Centocor, published 2005)
